Test results published in US20230235013A1 (MABSOLVE, published 2023).
Numbering of substitutions follows the chain as printed. In names and notes the source's numbering stands.

B1: anti-CD20 (rituximab) human IgG1 wild-type reference (antibody)
heavy: not shown
light: QIVLSQSPAILSASPGEKVTMTCRASSSVSYIHWFQQKPGSSPKPWIYATSNLASGVPVRFSGSGSGTSYSLTISRVEAEDAATYYCQQWTSNPPTFGGGTKLEIKRTVAAPSVFIFPPSDEQLKSGTASVVCLLNNFYPREAKVQWKVDNALQSGNSQESVTEQDSKDSTYSLSSTLTLSKADYEKHKVYACEVTHQGLSSPVTKSFNRGEC
notes: 2-1 and 10.0 are separate preparations of the same antibody; also called 2-1; 10.0; copies: 2 + 2
B2: anti-CD20 (rituximab) human IgG1 L234G/L235S/G236R (antibody)
heavy: QVQLQQPGAELVKPGASVKMSCKASGYTFTSYNMHWVKQTPGRGLEWIGAIYPGNGDTSYNQKFKGKATLTADKSSSTAYMQLSSLTSEDSAVYYCARSTYYGGDWYFNVWGAGTTVTVSSASTKGPSVFPLAPSSKSTSGGTAALGCLVKDYFPEPVTVSWNSGALTSGVHTFPAVLQSSGLYSLSSVVTVPSSSLGTQTYICNVNHKPSNTKVDKKVEPKSCDKTHTCPPCPAPEGSRGPSVFLFPPKPKDTLMISRTPEVTCVVVDVSHEDPEVKFNWYVDGVEVHNAKTKPREEQYNSTYRVVSVLTVLHQDWLNGKEYKCKVSNKALPAPIEKTISKAKGQPREPQVYTLPPSRDELTKNQVSLTCLVKGFYPSDIAVEWESNGQPENNYKTTPPVLDSDGSFFLYSKLTVDKSRWQQGNVFSCSVMHEALHNHYTQKSLSLSPGK
light: B1 light
notes: EU numbering; also called 2-19; 1-59; copies: 2 + 2
B3: anti-CD20 (rituximab) human IgG1 L234T/L235T/G236R (antibody)
heavy: B2 heavy with G238T, S239T
light: B1 light
notes: EU numbering; also called 2-63; 1-165; copies: 2 + 2
B4: anti-CD20 (rituximab) human IgG1 L234Q/L235S/G236R (antibody)
heavy: B2 heavy with G238Q
light: B1 light
notes: EU numbering; also called 2-33; 10.77; copies: 2 + 2
B5: anti-CD20 (rituximab) human IgG1 L234S/L235T/G236R (antibody)
heavy: B2 heavy with G238S, S239T
light: B1 light
notes: EU numbering; also called 2-52; 1-150; copies: 2 + 2
B6: anti-CD20 (rituximab) human IgG1 N297Q (aglycosyl) (antibody)
heavy: not shown
light: B1 light
notes: EU numbering; also called 2-67; copies: 2 + 2
B7: anti-CD20 (rituximab) human IgG1 L234A/L235A/P329G (LALAPG reference) (antibody)
heavy: not shown
light: B1 light
notes: EU numbering; also called 2-66; copies: 2 + 2
B8: anti-CD20 (rituximab) human IgG1 L234A/L235A (LALA) (antibody)
heavy: not shown
light: B1 light
notes: EU numbering; also called 2-65; 10.16; copies: 2 + 2
B9: anti-CD3 human IgG1 L234A/L235A/P329G (LALAPG reference) (antibody)
heavy: not shown
light: QIVLTQSPAIMSASPGEKVTMTCSASSSVSYMNWYQQKSGTSPKRWIYDTSKLASGVPAHFRGSGSGTSYSLTISGMEAEDAATYYCQQWSSNPFTFGSGTKLEIKRTVAAPSVFIFPPSDEQLKSGTASVVCLLNNFYPREAKVQWKVDNALQSGNSQESVTEQDSKDSTYSLSSTLTLSKADYEKHKVYACEVTHQGLSSPVTKSFNRGEC
notes: also called 3-66; copies: 2 + 2

biological target: T1, Human C1q (Sigma Cat. No. 20476), HRP-labelled (human, UniProt P02745 23-245; P02746 28-253; P02747 29-245); assay: ELISA, antibody coated, HRP-C1q; Expt 1, buffer alone 0.061
T1 construct: Coupled to horse-radish peroxidase with Lightning-Link kit; also called HRP-labelled C1q

Binder | Mean Absorbance
B1 | 2.63 absorbance (450 nm)
B2 | 0.052 absorbance (450 nm)
B3 | 0.068 absorbance (450 nm)
B4 | 0.026 absorbance (450 nm)
B5 | 0.047 absorbance (450 nm)

biological target: T2, human FcRn (R&D Systems Cat. No. 8639-Fc) (human, UniProt P55899 24-297; P61769 21-119); assay: SPR, FcRn captured; Expt 3

Binder | Corrected and normalised response (% of wild-type reference)
B1 | 100 % of wild-type reference
B6 | 76.6 % of wild-type reference
B2 | 95.7 % of wild-type reference
B7 | 93.6 % of wild-type reference
B8 | 92.9 % of wild-type reference
B3 | 88.1 % of wild-type reference
B4 | 98.2 % of wild-type reference
B5 | 93.7 % of wild-type reference

biological target: T3, CD3D/CD3E heterodimer (Sino Biologicals Cat. No. CT038-H2508H) (human, UniProt P04234 22-105; P07766 23-126); assay: ELISA, antigen coated, antibody 5 µg/mL
T3 construct: bought; also called CD3 antigen; human CD3

Binder | Mean Absorbance [absorbance]
B9 | 1.13

biological target: T1, Human C1q (Sigma Cat. No. 20476), …; assay: ELISA, antibody coated, HRP-C1q; Expt 1, buffer alone 0.053

Binder | Mean Absorbance
B1 | 1.83 absorbance (450 nm)

biological target: T1, Human C1q (Sigma Cat. No. 20476), …; assay: ELISA, antibody coated, HRP-C1q; Expt 2, buffer alone 0.051

Binder | Mean Absorbance
B1 | 1.33 absorbance (450 nm)

biological target: T2, human FcRn (R&D Systems Cat. No. …); assay: SPR, FcRn captured; Mean

Binder | Corrected and normalised response (% of wild-type reference)
B1 | 100 % of wild-type reference
B6 | 77.9 % of wild-type reference
B2 | 96.3 % of wild-type reference
B7 | 95.1 % of wild-type reference
B8 | 93.3 % of wild-type reference
B3 | 93 % of wild-type reference
B4 | 98.1 % of wild-type reference
B5 | 96.6 % of wild-type reference

biological target: T2, human FcRn (R&D Systems Cat. No. …); assay: SPR, FcRn captured; Expt 1

Binder | Corrected and normalised response (% of wild-type reference)
B1 | 100 % of wild-type reference
B6 | 78.4 % of wild-type reference
B2 | 97.1 % of wild-type reference
B7 | 95.1 % of wild-type reference
B8 | 92.8 % of wild-type reference
B3 | 96 % of wild-type reference
B4 | 98.4 % of wild-type reference
B5 | 98.3 % of wild-type reference

biological target: T4, C-terminus biotinylated human FcRn attached to Streptavidin-SmBiT (FcRn-SAv-SmBiT) (human, UniProt P55899 24-297; P61769 21-119, limits assumed, C-terminus biotinylated (AviTag), attached to Streptavidin-SmBiT); assay: NanoBiT FcRn competition immunoassay, competitor Tracer-LgBiT human IgG, pH 6.0
T4 construct: Kit reagent; also called hFcRn-AviTag

Binder | Mean binding activity (% of wild-type reference)
B1 | 100 % of wild-type reference
B6 | 34.1 % of wild-type reference
B2 | 77.8 % of wild-type reference
B7 | 96.7 % of wild-type reference
B8 | 70.1 % of wild-type reference
B3 | 150 % of wild-type reference
B5 | 98.6 % of wild-type reference

biological target: T1, Human C1q (Sigma Cat. No. 20476), …; assay: ELISA, antibody coated, HRP-C1q; Expt 2, buffer alone 0.091

Binder | Mean Absorbance
B1 | 2.21 absorbance (450 nm)
B6 | 0.076 absorbance (450 nm)
B2 | 0.091 absorbance (450 nm)
B7 | 0.08 absorbance (450 nm)
B8 | 0.078 absorbance (450 nm)
B3 | 0.077 absorbance (450 nm)
B4 | 0.084 absorbance (450 nm)
B5 | 0.079 absorbance (450 nm)

biological target: T2, human FcRn (R&D Systems Cat. No. …); assay: SPR, FcRn captured; Expt 2

Binder | Corrected and normalised response (% of wild-type reference)
B1 | 100 % of wild-type reference
B6 | 78.7 % of wild-type reference
B2 | 96 % of wild-type reference
B7 | 96.4 % of wild-type reference
B8 | 94.2 % of wild-type reference
B3 | 95.1 % of wild-type reference
B4 | 97.8 % of wild-type reference
B5 | 97.9 % of wild-type reference

biological target: T5, Histidine-tagged recombinant human FcγRI (CD64) (human, UniProt P12314 16-288); assay: SPR, captured His-receptor
T5 construct: bought; also called Sino Biological Cat. No. 12056-H08H

Binder | binding result
B9 | binds

biological target: T2, human FcRn (R&D Systems Cat. No. …); assay: SPR, FcRn captured via anti-His, pH 6.0;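 note: SPR binding signal relative to the reference cell, corrected by subtracting the response of a blank sample of running buffer alone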

Binder | Corrected response (RU)
B1 | 582
B6 | 421
B8 | 505
B4 | 535

biological target: T6, mouse FcRn (Sino Biological Cat. No. CT029-M08H) (mouse, UniProt Q61559 22-297; P01887 21-119); assay: SPR, FcRn captured via anti-His, pH 6.0;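 note: SPR binding signal relative to the reference cell, corrected by subtracting the response of a blank sample of running buffer alone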
T6 construct: Bought protein, captured on an anti-histidine chip
T6 sequence (looked up): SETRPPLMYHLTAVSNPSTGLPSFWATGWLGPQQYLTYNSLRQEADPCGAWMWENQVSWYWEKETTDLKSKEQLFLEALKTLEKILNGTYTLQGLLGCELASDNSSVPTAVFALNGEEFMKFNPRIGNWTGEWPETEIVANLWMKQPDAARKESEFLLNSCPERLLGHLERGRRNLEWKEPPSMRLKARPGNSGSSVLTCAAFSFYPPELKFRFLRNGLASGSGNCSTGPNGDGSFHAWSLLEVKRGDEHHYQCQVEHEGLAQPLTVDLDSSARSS
T6 sequence (b2m, looked up): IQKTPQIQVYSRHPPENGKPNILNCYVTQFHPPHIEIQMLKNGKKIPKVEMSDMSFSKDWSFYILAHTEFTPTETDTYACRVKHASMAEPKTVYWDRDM

Binder | Corrected response (RU)
B1 | 178
B6 | 163
B8 | 190
B4 | 166

biological target: T7, cynomolgus monkey FcRn (Sino Biological Cat. No. CT031-C08H) (cynomolgus monkey, UniProt Q8SPV9 24-297; Q8SPW0 21-119); assay: SPR, FcRn captured via anti-His, pH 6.0;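 note: SPR binding signal relative to the reference cell, corrected by subtracting the response of a blank sample of running buffer alone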
T7 construct: Bought protein, captured on an anti-histidine chip; also called cynomolgus FcRn

Binder | Corrected response (RU)
B1 | 1320
B6 | 1010
B8 | 1180
B4 | 1230

biological target: T1, Human C1q (Sigma Cat. No. 20476), …; assay: ELISA, antibody coated, HRP-C1q; Expt 3, buffer alone 0.102

Binder | Mean Absorbance
B1 | 1.88 absorbance (450 nm)
B6 | 0.083 absorbance (450 nm)
B2 | 0.064 absorbance (450 nm)
B7 | 0.103 absorbance (450 nm)
B8 | 0.08 absorbance (450 nm)
B3 | 0.095 absorbance (450 nm)
B4 | 0.083 absorbance (450 nm)
B5 | 0.083 absorbance (450 nm)
